Biological target: HsUbcH5b(C85S)~Ub oxyester-linked conjugate (human | mammalian) (UniProt P62837)
Assay: pull-down

HsUbcH5b(C85S)~Ub oxyester-linked conjugate (from UniProt P62837 1-147; P0CG48 1-76) (complex)
stoichiometry N: 4

— paper PMC3366460
